Assay results taken from paper PMC11827635 (Science Advances, 2025).

B1: αE-catenin α(CA), as it stands in the tetramer and pentamer (natural protein, mouse, UniProt P26231 1-906, looked up)
chain: MTAVHAGNINFKWDPKSLEIRTLAVERLLEPLVTQVTTLVNTNSKGPSNKKRGRSKKAHVLAASVEQATENFLEKGDKIAKESQFLKEELVVAVEDVRKQGDLMKSAAGEFADDPCSSVKRGNMVRAARALLSAVTRLLILADMADVYKLLVQLKVVEDGILKLRNAGNEQDLGIQYKALKPEVDKLNIMAAKRQQELKDVGNRDQMAAARGILQKNVPILYTASQACLQHPDVAAYKANRDLIYKQLQQAVTGISNAAQATASDDAAQHQGGSGGELAYALNNFDKQIIVDPLSFSEERFRPSLEERLESIISGAALGADSSCTEDDRRERIVAECNAVRQALQDLLSEYMGNAGRKERSDALNSAIDKMTKKTRDLRRQLRKAVMDHVSDSFLETNVPLLVLIEAAKNGNEKEVKEYAQVFREHANKLIEVANLACSISNNEEGVKLVRMSASQLEALCPQVINAALALAAKPQSKLAQENMDLFKEQWEKQVRVLTDAVDDITSIDDFLAVSENHILEDVNKCVIALQEKDVDGLDRTAGAIRGRAAEVIHVVTSEMDNYEPGVYTEKVLEATKLLSNTVMPRFTEQVEAAVEALSSDPAQPMDENEFIDASRLVYDGIRDIRKAVLMIRTPEELDDSDFETEDFDVRSRTSVQTEDDQLIAGQSARAIMAQLPQEQKAKIAEQVASFQEEKSKLDAEVSKWDDSGNDIIVLAKQMCMIMMEMTDFTRGKGPLKNTSDVISAAKKIAEAGSRMDKLGRTIADHCPDSACKQDLLAYLQRIALYCHQLNICSKVKAEVQNLGGELVVSGVDSAMSLIQAAKNLMNAVVQTVKASYVASTKYQKSQGMASLNLPAVSWKMKAPEKKPLVKREKQDETQTKIKRASQKKHVNPVQALSEFKAMDSI
notes: αE-catenin, α(CA); residues 690 to 903 are modelled in PDB 9DVA; single chain of m5, m6, m11 and m18, written for the pairs that touch; also called αE-catenin ABD (in the structure); ABD1; source: FreeStyle 293-F, co-expressed and purified within the cadherin-catenin–vinculin complex

How the values were obtained:
[1] = target: B1; assay: cryo-EM structure; 2.5 μM tetramer premixed with 5 μM afadin-CC, added to 0.6 μM F-actin on the grid; straight filaments 3.1 Å, curved filaments decorated along one strand 4.1 Å; conditions: both partners purified
[2] = target: the molecule itself; assay: as above

| binding result [1] | Binder | binding result [2] |
| --- | --- | --- |
| binds | afadin coiled-coil region (afadin-CC) (domain or fragment, mouse, UniProt Q9QZQ1-3 1393-1602, looked up, afadin, coiled-coil region (afadin-CC); residues 1508 to 1578 are modelled in PDB 9DVA; also called afadin-CC domain; source: FreeStyle 293-F, purified (anti-GFP beads, TEV, MonoQ, Superdex 200); not shown: GFP, N-terminal, cleaved) ANQAGPQSAQVAAAEWKKREEHQRWYEKEKARLEEERERKRREQERKLGQMRSQTLNPASFSPLATQAKPEKPSTLQRPQETVIRELQPQQQPRTIERKDLQYITISKEELSSGDSLSPDPWKRDAREKLEKQQQMHIVDMLSKEIHELQNKVDRTAEESDRLRKLMLEWQFQKRLQESKQKDEDDDEEEDDDVDTMLIMQRLEAERRAR |  |
|  | B1 | binds |
